One substance from PMC5684140 can be followed below.

The stoichiometry N is the number of molecules, sites or subunits per partner or assembly.

This test addresses JMJD8-FLAG-HA (HeLa-JMJD8-FLAG-HA) (human) (UniProt Q96S16). In words: SEC; gel filtration (Superdex 200) of total cell lysate of HeLa S3 cells stably expressing JMJD8-FLAG-HA; fractions immunoblotted with anti-FLAG. In general terms: Size exclusion chromatography separates by hydrodynamic size, large species first.

“JMJD8-FLAG-HA (HeLa-JMJD8-FLAG-HA) (from UniProt Q96S16-1 24-264) (natural protein)” showed a stoichiometry N of 2.
